Experimental data from the supplement of paper PMC10598134.
± gives the standard deviation.

Assay: collision cross section of modified peptide (TIMS, N2, iRT-aligned); higher = larger / more extended gas-phase ion
How it was run: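 Collision cross section was derived from the Mason-Schamp equation. Each value averages 1–3 technical replicates of the most abundant feature per charge state, measured on a timsTOF Pro/HT in dda-PASEF mode (nitrogen, ~2.4 mbar) after a 120-min nanoflow C18 gradient at 60 °C. Synthetic peptide pools (~100 fmol/µL in 2% acetonitrile/0.1% formic acid, iRT standard spiked 1:40) were identified with MaxQuant, and 1/K0 was calibrated with three reference ions and aligned run-wise to the median iRT peptide deviation.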

[1] = charge state: 2, modification: Methyl (K)
[2] = charge state: 3, modification: Methyl (K)
[3] = charge state: 3, modification: Crotonyl
[4] = charge state: 2, modification: Crotonyl
[5] = charge state: 2, modification: Glutarylation
[6] = charge state: 3, modification: Glutarylation
[7] = charge state: 2, modification: hydroxyisobutyryl
[8] = charge state: 2, modification: Phospho (Y)
[9] = charge state: 2, modification: Hydroxyproline
[10] = charge state: 2, modification: Propionyl
[11] = charge state: 2, modification: Malonyl
[12] = charge state: 2, modification: GlyGly (K)
[13] = charge state: 3, modification: GlyGly (K)
[14] = charge state: 2, modification: Formyl
[15] = charge state: 2, modification: Nitro (Y)
[16] = charge state: 2, modification: Acetyl (K)
[17] = charge state: 3, modification: Acetyl (K)
[18] = charge state: 2, modification: Butyryl
[19] = charge state: 3, modification: Butyryl
[20] = charge state: 3, modification: Trimethyl (K)
[21] = charge state: 3, modification: Dimethyl (K)
[22] = charge state: 2, modification: Citrullination (R)
[23] = charge state: 2, modification: HexNAc (ST)
[24] = charge state: 2, modification: Trimethyl (K)
[25] = charge state: 3, modification: Hydroxyproline
[26] = charge state: 3, modification: hydroxyisobutyryl
[27] = charge state: 3, modification: Phospho (Y)

“FLQEFYQDDELGKK [_FLQEFYQDDELGK(Methyl (K))K_]” showed a collision cross section [1] of 445.9 ± 2.4 Å² and a collision cross section [2] of 499.81 ± 3 Å².

Work on “LFVGGIKEDTEEHHLR [_LFVGGIK(Crotonyl)EDTEEHHLR_]” yielded a collision cross section [3] of 544.97 ± 1.3 Å².

“DTGEKLTVAENEAETK [_DTGEK(Crotonyl)LTVAENEAETK_]” gave a collision cross section [4] of 449.13 ± 0.83 Å².

Substance “LLIVSTTPYSEKDTK [_LLIVSTTPYSEK(Gluratylation)DTK_]” has a collision cross section [5] of 462.31 ± 1.5 Å² and a collision cross section [6] of 493.7 ± 1.3 Å².

“TLDEILQEKK [_TLDEILQEK(hydroxyisobutyryl)K_]” showed a collision cross section [7] of 386.54 ± 0.81 Å².

In the case of “GFGRGGAESHTFK [_GFGR(Methyl (R))GGAESHTFK_]”, the collision cross section (charge state: 3, modification: Methyl (R)) is reported as 473.29 ± 3 Å².

Substance “DYVSQFEGSALGK [_DY(Phospho (Y))VSQFEGSALGK_]” has a collision cross section [8] of 391.59 ± 0.64 Å².

“GGPGAPGAPGPK [_GGPGAP(Hydroxyproline)GAPGPK_]” showed a collision cross section [9] of 326.77 ± 0.24 Å².

“ANEKTESSSAQQVAVSR [_ANEK(Propionyl)TESSSAQQVAVSR_]” showed a collision cross section [10] of 439.84 ± 1.6 Å² and a collision cross section (charge state: 3, modification: Propionyl) of 533.7 Å².

With LELAQYR [_LELAQY(Phospho (Y))R_] the collision cross section [8] was 329.12 ± 0.75 Å².

“IINEPTAAAIAYGLDKK [_IINEPTAAAIAYGLDK(Malonyl)K_]” gave a collision cross section [11] of 458.91 ± 0.99 Å².

With “IHVQSSSDSSDEPAEKR [_IHVQSSSDSSDEPAEK(GlyGly (K))R_]” the collision cross section [12] was 469.51 Å² and the collision cross section [13] was 539.73 ± 0.58 Å².

Work on “DAEAAEATAEGALKAEK [_DAEAAEATAEGALK(Formyl)AEK_]” yielded a collision cross section [14] of 428.82 ± 0.71 Å² and a collision cross section (charge state: 3, modification: Formyl) of 534.4 ± 0.57 Å².

With “SYSVGASGSSSR [_SY(Nitro (Y))SVGASGSSSR_]” the collision cross section [15] was 351.9 ± 1.2 Å².

For “ATVASSTQKFQDLGVK [_ATVASSTQK(Acetyl (K))FQDLGVK_]”, the collision cross section [16] was 445.22 ± 2.2 Å² and the collision cross section [17] was 493.63 ± 0.33 Å².

For INNFSADIKDSK [_INNFSADIK(Butyryl)DSK_], the collision cross section [18] was 405.78 ± 0.75 Å² and the collision cross section [19] was 461.68 ± 3.2 Å².

Work on “AAQASDLEKIHLDEK [_AAQASDLEK(GlyGly (K))IHLDEK_]” yielded a collision cross section [12] of 469.33 ± 0.94 Å² and a collision cross section [13] of 508.49 ± 1.9 Å².

“FGTINIVHPKLGSYTK [_FGTINIVHPK(Trimethyl (K))LGSYTK_]” gave a collision cross section [20] of 502.05 ± 2.2 Å².

“TQAYQDQKPGTSGLR [_TQAYQDQK(Dimethyl (K))PGTSGLR_]” showed a collision cross section [21] of 464.17 ± 1.6 Å².

In the case of “IISSIEQKEENK [_IISSIEQK(Dimethyl (K))EENK_]”, the collision cross section (charge state: 2, modification: Dimethyl (K)) is reported as 410.65 ± 1.1 Å² and the collision cross section [21] is reported as 464.23 ± 1.4 Å².

Substance GEVQVSDKER [_GEVQVSDK(Crotonyl)ER_] has a collision cross section [4] of 363.4 ± 0.8 Å².

For YTCSFCGK [_Y(Nitro (Y))TCSFCGK_], the collision cross section [15] was 334.4 ± 0.71 Å².

With “PSVGSQSNQAGQGKR [_PSVGSQSNQAGQGK(Crotonyl)R_]” the collision cross section [4] was 420.02 ± 0.41 Å² and the collision cross section [3] was 468.33 ± 1.6 Å².

“LGGDLGTYVINK [_LGGDLGTY(Nitro (Y))VINK_]” showed a collision cross section [15] of 371.97 ± 0.72 Å².

For “LQAAYAGDKADDIQK [_LQAAYAGDK(GlyGly (K))ADDIQK_]”, the collision cross section [12] was 455.93 ± 1.6 Å² and the collision cross section [13] was 505.34 ± 0.35 Å².

LLEEEDSKLK [_LLEEEDSK(Crotonyl)LK_] showed a collision cross section [4] of 386.83 ± 0.27 Å².

Substance “AAQASDLEKIHLDEK [_AAQASDLEK(Dimethyl (K))IHLDEK_]” has a collision cross section [21] of 503.12 ± 0.75 Å².

VGTASVLQPVKK [_VGTASVLQPVK(Crotonyl)K_] showed a collision cross section [4] of 387.11 ± 0.8 Å².

“DTPTSAGPNSFNKGK [_DTPTSAGPNSFNK(Crotonyl)GK_]” gave a collision cross section [4] of 412.68 ± 0.55 Å² and a collision cross section [3] of 462.19 Å².

Work on “PGTPAGYGRGR [_PGTPAGYGR(Citrullination (R))GR_]” yielded a collision cross section [22] of 345.81 ± 4.8 Å² and a collision cross section (charge state: 3, modification: Citrullination (R)) of 431.14 Å².

For “FSPPSSSLQPGK [_FSPPSSS(HexNAc (ST))LQPGK_]”, the collision cross section [23] was 396.47 ± 1.2 Å².

In the case of “ATVASSTQKFQDLGVK [_ATVASSTQK(Trimethyl (K))FQDLGVK_]”, the collision cross section [24] is reported as 475.64 ± 1.1 Å² and the collision cross section [20] is reported as 477.04 ± 1.8 Å².

“LDEKENLSAK [_LDEK(Trimethyl (K))ENLSAK_]” gave a collision cross section [24] of 376.2 ± 0.61 Å² and a collision cross section [20] of 441.92 ± 3.4 Å².

Substance “VLDSGAPIKIPVGPETLGR [_VLDSGAPIK(Formyl)IPVGPETLGR_]” has a collision cross section [14] of 463.34 ± 1.2 Å².

Substance “VFIGNLNTLVVKK [_VFIGNLNTLVVK(Butyryl)K_]” has a collision cross section [18] of 414.54 ± 0.53 Å² and a collision cross section [19] of 490.12 Å².

Substance ASNAAVKLAESK [_ASNAAVK(Crotonyl)LAESK_] has a collision cross section [4] of 375.99 ± 0.26 Å².

Substance “DTGEKLTVAENEAETK [_DTGEK(Gluratylation)LTVAENEAETK_]” has a collision cross section [5] of 451.19 ± 1.1 Å² and a collision cross section [6] of 527.35 Å².

In the case of DHLSDKESK [_DHLSDK(Gluratylation)ESK_], the collision cross section [5] is reported as 353.36 ± 0.63 Å² and the collision cross section [6] is reported as 411.89 Å².

SQLANTEPTK [_SQLANT(HexNAc (ST))EPTK_] gave a collision cross section [23] of 372.78 ± 0.59 Å².

In the case of “TAGSSGVTAGRPRPTAR [_TAGSSGVTAGRPRPT(HexNAc (ST))AR_]”, the collision cross section (charge state: 3, modification: HexNAc (ST)) is reported as 527.29 ± 0.18 Å².

With “VGYPGPSGPLGARGIPGIK [_VGYP(Hydroxyproline)GPSGPLGARGIPGIK_]” the collision cross section [9] was 446.49 ± 1.1 Å² and the collision cross section [25] was 508.9 ± 31 Å².

“LLFSNTAAQKLR [_LLFSNTAAQK(hydroxyisobutyryl)LR_]” gave a collision cross section [7] of 408.17 ± 0.55 Å² and a collision cross section [26] of 486.85 ± 1.9 Å².

“SGATAGAAGGRGK [_SGATAGAAGGR(Citrullination (R))GK_]” gave a collision cross section [22] of 331.61 ± 0.28 Å².

Work on VNALKNLQVK [_VNALK(GlyGly (K))NLQVK_] yielded a collision cross section [12] of 383.13 ± 0.38 Å² and a collision cross section [13] of 444.03 ± 1.9 Å².

“IHNAENIQPGEQKYEYK [_IHNAENIQPGEQK(hydroxyisobutyryl)YEYK_]” showed a collision cross section [7] of 491.39 ± 0.68 Å² and a collision cross section [26] of 532.88 ± 2 Å².

LEEVTGKLQVAR [_LEEVTGK(Formyl)LQVAR_] gave a collision cross section [14] of 388.92 ± 0.55 Å².

In the case of “ISSNFSSIIAEKLR [_ISSNFSSIIAEK(Crotonyl)LR_]”, the collision cross section [4] is reported as 435.72 Å².

YEITEQR [_Y(Phospho (Y))EITEQR_] showed a collision cross section [8] of 328.08 ± 0.068 Å².

With “YSTSGSSGLTTGK [_Y(Nitro (Y))STSGSSGLTTGK_]” the collision cross section [15] was 371.62 ± 0.55 Å².

Work on “TVTNAVVTVPAYFNDSQR [_TVTNAVVTVPAY(Nitro (Y))FNDSQR_]” yielded a collision cross section [15] of 470.26 ± 1.5 Å² and a collision cross section (charge state: 3, modification: Nitro (Y)) of 559.7 ± 0.32 Å².

Substance FYTEDSPGLK [_FY(Nitro (Y))TEDSPGLK_] has a collision cross section [15] of 356.24 ± 0.17 Å².

For “DDSFLGKLGGTLAR [_DDSFLGK(Butyryl)LGGTLAR_]”, the collision cross section [18] was 417.41 ± 0.39 Å² and the collision cross section [19] was 492.3 ± 2.4 Å².

Work on VNALKNLQVK [_VNALK(Crotonyl)NLQVK_] yielded a collision cross section [4] of 376.57 ± 0.8 Å².

In the case of DYILEGEPGK [_DY(Nitro (Y))ILEGEPGK_], the collision cross section [15] is reported as 355.27 ± 0.17 Å².

With “LGILPVGRGK [_LGILPVGR(Citrullination (R))GK_]” the collision cross section [22] was 340.52 ± 0.26 Å².

With “SGKFTQQDIDEAK [_SGK(Trimethyl (K))FTQQDIDEAK_]” the collision cross section [24] was 408.18 ± 1.1 Å² and the collision cross section [20] was 472.62 ± 0.88 Å².

In the case of “FPGVGVLPGVPTGAGVKPK [_FPGVGVLPGVPTGAGVKP(Hydroxyproline)K_]”, the collision cross section [9] is reported as 440.08 ± 1.4 Å² and the collision cross section [25] is reported as 556.97 ± 11 Å².

In the case of “TTGFYSGFSEVAEKR [_TTGFYSGFSEVAEK(Acetyl (K))R_]”, the collision cross section [16] is reported as 434.33 ± 1.7 Å² and the collision cross section [17] is reported as 508.12 ± 0.12 Å².

In the case of “PASGAGAGAGAGKR [_PASGAGAGAGAGK(Malonyl)R_]”, the collision cross section [11] is reported as 352.42 ± 0.026 Å².

“SKLLFSNTAAQK [_SK(Trimethyl (K))LLFSNTAAQK_]” gave a collision cross section [24] of 395.61 ± 0.017 Å² and a collision cross section [20] of 446.07 ± 2.4 Å².

“LTEKELAEAASK [_LTEK(Propionyl)ELAEAASK_]” showed a collision cross section [10] of 389.08 ± 0.49 Å².

In the case of “ASAISIKLGSSK [_ASAISIK(Methyl (K))LGSSK_]”, the collision cross section [1] is reported as 369.46 ± 0.48 Å² and the collision cross section [2] is reported as 438.5 ± 5.9 Å².

“HHAAYVNNLNVTEEK [_HHAAY(Phospho (Y))VNNLNVTEEK_]” showed a collision cross section [8] of 438.56 Å² and a collision cross section [27] of 495.42 ± 1.2 Å².

Work on “IPQEKCILQTDVK [_IPQEK(Succinyl)CILQTDVK_]” yielded a collision cross section (charge state: 2, modification: Succinyl) of 432.46 ± 0.51 Å².

LDEKENLSAK [_LDEK(Formyl)ENLSAK_] gave a collision cross section [14] of 361.57 ± 0.88 Å².

For FTEYETQVK [_FTEY(Nitro (Y))ETQVK_], the collision cross section [15] was 363.94 ± 0.94 Å².

With “VNVEAPDVNLEGLGGKLK [_VNVEAPDVNLEGLGGK(Butyryl)LK_]” the collision cross section [18] was 466.95 ± 0.75 Å² and the collision cross section [19] was 548.3 ± 0.14 Å².

Substance “AAGQPYEQHAK [_AAGQPY(Phospho (Y))EQHAK_]” has a collision cross section [8] of 368.83 ± 10 Å² and a collision cross section [27] of 436.55 Å².
